# From the supplement of paper PMC9732359
# ± gives the uncertainty stated by the source.
# Experiment: protein stability index of a GFP-peptide fusion (yeast GPS) (PSI 1-4); higher = more stable; sorted into four equal gates, so the index is relative within each strain
# Settings: san1∆
# Method in brief: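 Plasmids in a pooled yeast library fused tiled 17-residue yeast protein peptides downstream of GFP and also expressed Cherry. Mid-log cultures grown without leucine were sorted into four equal gates by GFP/Cherry fluorescence ratio. Each gate's plasmids were PCR-amplified and Illumina-sequenced, and reads were matched to strains by barcodes. The protein stability index is derived by multiplying each gate's read frequency by its gate number and summing the results.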
row,Sequence,protein stability index
1,KPNIILDEDDTNDGIER [RPC31],3.31 ± 0.051
2,KPQFENHVKQFYERLDK [MED11],2.57 ± 0.088
3,KPTREPTPSVKTEPVGT [RPC53],2.95 ± 0.19
4,KQAHEKLDASKKQQAAL [YIL149C/MLP2],3.25 ± 0.059
5,KQENETMQPPYIQERLK [MED11],3.19 ± 0.04
6,KQFLTKDLKFPLPHRVQ [RPL20A],2.86 ± 0.057
7,KQIIVTRKAMLDPLEVH [PRP8],3.16 ± 0.062
8,KQLTLLRSKLFQFKLLQ [SMC4],1.69 ± 0.064
9,KRANNIRKFFGLSKEDD [RPS6A],2.98 ± 0.15
10,KRELKQLLEKAPIPIRE [BRR2],1.99 ± 0.13
11,KRELKRAQEEVKRIQSV [RPT3],2.91 ± 0.096
12,KRIHSVRTRGGNKKYRA [RPS8A],2.626 ± 0.025
13,KRKLLEHRRYDDQLKQR [RPT4],1.42 ± 0.23
14,KRLADGLSVTQKVFVRS [DIS3],1.93 ± 0.12
15,KRMLLSLSEFARRRQPT [SNF2],1.77 ± 0.25
16,KRNGSTLEQKVNLENPI [FAS1],2.21 ± 0.11
17,KRNKLLTIFDSVDESAR [YJL039C/NUP192],2.32 ± 0.061
18,KRRFDPSSSDSNGPRAA [RRP6],3.21 ± 0.048
19,KRTICKKCHRLLWTPKK [RPR2],2.81 ± 0.048
20,KRVSGTSQHSDSLTQNN [YOR098C/NUP1],2.73 ± 0.072
21,KSESPSEVLVDTLDSKS [ISW2],2.96 ± 0.075
22,KSFANHTEDEQIEKKKI [SIR4],2.66 ± 0.096
23,KSGKTIVITSITGGIIE [RRP43],2.07 ± 0.1
24,KSHNAHVRCGTAFALGI [RPN2],2.18 ± 0.14

row,Sequence,protein stability index
1,KSLEEQEYAIEMKIGSI [SMC1],2.67 ± 0.11
2,KSNDSEGDFLKSIIGKL [POP1],1.93 ± 0.11
3,KSSSNRSCVSNSNENGT [RPN4],3.01 ± 0.05
4,KTAEQVAAERAARKAAN [RPL7A],2.78 ± 0.062
5,KTAFKPHELTESVLPAA [QCR2],2.62 ± 0.057
6,KTANSSSDAFEKLKVNM [YIL149C/MLP2],2.95 ± 0.065
7,KTERVEDQKVVDKALLA [RPL6B],1.38 ± 0.15
8,KTFCEDPFSDVDDDQDY [GRR1],3.32 ± 0.048
9,KTFDYVSDHLDAIYREL [SMC1],3.37 ± 0.074
10,KTKKLNLSAFKIVYIAP [BRR2],2.19 ± 0.069
11,KTLEKLESTIAETQGSK [IRR1],1.39 ± 0.27
12,KTLKLARAPKYASKAVP [RPL25],2.53 ± 0.067
13,KTNKISILKRHSFAVLL [NUT1],2.19 ± 0.12
14,KTSEKSENHTESDAPPK [YOR098C/NUP1],2.53 ± 0.15
15,KTSSGSYNYVENGIEVE [ITC1],2.95 ± 0.12
16,KVAKKRLGSFTRAKAKV [RPL36A],3.1 ± 0.16
17,KVATEKDFLKAVDKVIS [RPT1],3.05 ± 0.11
18,KVDIPLEVVQYIEDGRN [NUT2],1.34 ± 0.094
19,KVEKVVKCKMSALQQIM [SNF2],2.95 ± 0.14
20,KVENLDYMYENGKLTSA [YML031W/NDC1],3.04 ± 0.12
21,KVIDLDTKLKAHELQSE [YIL149C/MLP2],2.58 ± 0.059
22,KVIPYSTFRLNLSVTSP [RPO21],1.14 ± 0.24
23,KVMNNSFKLCTLLIAIR [YML103C/NUP188],1.96 ± 0.15
24,KVNSRDDSFFNETNDKK [PRP28],3.04 ± 0.13

row,Sequence,protein stability index
1,KVPIGLILQRLKDLNLT [RGR1],2.98 ± 0.074
2,KVSPEELPLVITMPATN [ARP7],2.57 ± 0.053
3,KVTCSSNSSSSPPIIDL [MED1],2.87 ± 0.032
4,KVVLKALFLSKINRPPV [RPL18A],1.41 ± 0.16
5,KWGRNQPVNINLDSSIT [YMR129W/POM152],2.71 ± 0.099
6,KYFTESDIPVSENVFEG [SSN3],3.1 ± 0.094
7,KYHKEQFIKSNFEKILL [SRB8],1.95 ± 0.075
8,KYPLGHFVRDLGTIESA [DIS3],2.85 ± 0.15
9,KYVLITGAGKGSIGAEV [FAS2],3.63 ± 0.099
10,LAFNYITYDKQEPSASQ [SRP68],2.97 ± 0.056
11,LAGVLYESRNVAKRRFE [RRP6],2.93 ± 0.077
12,LAKKTHKQELQDLILDL [SMC4],3.14 ± 0.055
13,LAKLVSTIDANFADKYD [RPL8A],2.8 ± 0.12
14,LALAETLKLRARQRGKL [SRP68],2.25 ± 0.26
15,LALKLELLDFLTSNLSN [YJL039C/NUP192],2.45 ± 0.049
16,LAREVPQQSGKKLLINK [DPB4],1.86 ± 0.1
17,LARSGLRIGRIEDVTPV [RPS14B],2.25 ± 0.062
18,LASKAARKSAPSTGGVK [HHT1],2.99 ± 0.076
19,LATLHYQKKQYKDSLAL [RPN6],2.62 ± 0.19
20,LCDIDEVSDFDEMYELT [DIB1],2.65 ± 0.12
21,LCMDSSYIGTIIVKDKS [POP1],1.13 ± 0.11
22,LDEDDVNADDDDFMHSE [RPB4],2.53 ± 0.12
23,LDENLNSLSSNLSSLIV [YJL041W/NSP1],2.66 ± 0.065
24,LDIEKEAPAGNIDTITD [MCD1],3.07 ± 0.086

# Same assay, conditions: ubr1∆
row,Sequence,protein stability index
1,KPLTENCKKKKKRKKKN [RMP1],3.38 ± 0.19
2,KPNIILDEDDTNDGIER [RPC31],3.27 ± 0.043
3,KPQFENHVKQFYERLDK [MED11],2.17 ± 0.17
4,KPTREPTPSVKTEPVGT [RPC53],3.02 ± 0.21
5,KQAHEKLDASKKQQAAL [YIL149C/MLP2],3 ± 0.057
6,KQENETMQPPYIQERLK [MED11],3.02 ± 0.033
7,KQFLTKDLKFPLPHRVQ [RPL20A],2.78 ± 0.046
8,KQIIVTRKAMLDPLEVH [PRP8],3.05 ± 0.055
9,KQLTLLRSKLFQFKLLQ [SMC4],2.34 ± 0.038
10,KRANNIRKFFGLSKEDD [RPS6A],3.56 ± 0.11
11,KRCLFESLSNEAALKAN [RPO31],2.84 ± 0.22
12,KRELKQLLEKAPIPIRE [BRR2],1.91 ± 0.061
13,KRELKRAQEEVKRIQSV [RPT3],3.38 ± 0.083
14,KRIHSVRTRGGNKKYRA [RPS8A],2.591 ± 0.018
15,KRKLLEHRRYDDQLKQR [RPT4],1.92 ± 0.17
16,KRLADGLSVTQKVFVRS [DIS3],1.93 ± 0.06
17,KRMLLSLSEFARRRQPT [SNF2],2.58 ± 0.092
18,KRNGSTLEQKVNLENPI [FAS1],3.09 ± 0.089
19,KRNKLLTIFDSVDESAR [YJL039C/NUP192],2.36 ± 0.066
20,KRRFDPSSSDSNGPRAA [RRP6],3.33 ± 0.052
21,KRTICKKCHRLLWTPKK [RPR2],2.26 ± 0.037
22,KRVSGTSQHSDSLTQNN [YOR098C/NUP1],2.68 ± 0.054
23,KSESPSEVLVDTLDSKS [ISW2],3.24 ± 0.056
24,KSFANHTEDEQIEKKKI [SIR4],2.13 ± 0.048
25,KSGKTIVITSITGGIIE [RRP43],1.78 ± 0.1
26,KSHNAHVRCGTAFALGI [RPN2],1.8 ± 0.075

row,Sequence,protein stability index
1,KSLEEQEYAIEMKIGSI [SMC1],2.66 ± 0.2
2,KSNDSEGDFLKSIIGKL [POP1],1.3 ± 0.15
3,KSSSNRSCVSNSNENGT [RPN4],3.03 ± 0.048
4,KTAEQVAAERAARKAAN [RPL7A],2.56 ± 0.052
5,KTAFKPHELTESVLPAA [QCR2],2.8 ± 0.038
6,KTANSSSDAFEKLKVNM [YIL149C/MLP2],3.02 ± 0.051
7,KTERVEDQKVVDKALLA [RPL6B],1.19 ± 0.13
8,KTFCEDPFSDVDDDQDY [GRR1],3.46 ± 0.1
9,KTFDYVSDHLDAIYREL [SMC1],3.12 ± 0.1
10,KTKKLNLSAFKIVYIAP [BRR2],2.27 ± 0.052
11,KTLKLARAPKYASKAVP [RPL25],2.19 ± 0.035
12,KTLSLKSMASAFGVSVA [RPN7],1.21 ± 0.13
13,KTNKISILKRHSFAVLL [NUT1],1.99 ± 0.075
14,KTSEKSENHTESDAPPK [YOR098C/NUP1],2.28 ± 0.21
15,KTSSGSYNYVENGIEVE [ITC1],3.31 ± 0.17
16,KTTYYYYNEEGIHILLY [RPC82],2.75 ± 0.05
17,KVAKKRLGSFTRAKAKV [RPL36A],2.86 ± 0.29
18,KVATEKDFLKAVDKVIS [RPT1],3.26 ± 0.053
19,KVDIPLEVVQYIEDGRN [NUT2],1.59 ± 0.046
20,KVEKVVKCKMSALQQIM [SNF2],3.13 ± 0.09
21,KVIDLDTKLKAHELQSE [YIL149C/MLP2],2.69 ± 0.042
22,KVIPYSTFRLNLSVTSP [RPO21],1.97 ± 0.13
23,KVKNFGVWVRYDSRSGT [RPL20A],2.55 ± 0.24
24,KVMNNSFKLCTLLIAIR [YML103C/NUP188],1.63 ± 0.09
25,KVNSRDDSFFNETNDKK [PRP28],2.94 ± 0.12
26,KVPIGLILQRLKDLNLT [RGR1],2.63 ± 0.053

row,Sequence,protein stability index
1,KVSPEELPLVITMPATN [ARP7],2.57 ± 0.042
2,KVTCSSNSSSSPPIIDL [MED1],2.74 ± 0.033
3,KVVLKALFLSKINRPPV [RPL18A],1.46 ± 0.083
4,KWGRNQPVNINLDSSIT [YMR129W/POM152],2.52 ± 0.07
5,KYFTESDIPVSENVFEG [SSN3],3.06 ± 0.073
6,KYHKEQFIKSNFEKILL [SRB8],2.37 ± 0.057
7,KYPLGHFVRDLGTIESA [DIS3],2.58 ± 0.19
8,KYVLITGAGKGSIGAEV [FAS2],3.05 ± 0.093
9,LAFNYITYDKQEPSASQ [SRP68],2.93 ± 0.037
10,LAGVLYESRNVAKRRFE [RRP6],3.12 ± 0.047
11,LAKKTHKQELQDLILDL [SMC4],3.05 ± 0.067
12,LAKLVSTIDANFADKYD [RPL8A],1.89 ± 0.069
13,LALAETLKLRARQRGKL [SRP68],2.97 ± 0.098
14,LALKLELLDFLTSNLSN [YJL039C/NUP192],2.65 ± 0.043
15,LALSGTSASNTSMNGVH [SNF5],3.05 ± 0.14
16,LAREVPQQSGKKLLINK [DPB4],1.58 ± 0.067
17,LARSGLRIGRIEDVTPV [RPS14B],2.07 ± 0.043
18,LASKAARKSAPSTGGVK [HHT1],3.05 ± 0.1
19,LATLHYQKKQYKDSLAL [RPN6],2.14 ± 0.23
20,LCDIDEVSDFDEMYELT [DIB1],1.9 ± 0.16
21,LCMDSSYIGTIIVKDKS [POP1],1.28 ± 0.089
22,LDEDDVNADDDDFMHSE [RPB4],3.07 ± 0.09
23,LDENLNSLSSNLSSLIV [YJL041W/NSP1],2.6 ± 0.044
24,LDIEKEAPAGNIDTITD [MCD1],3.08 ± 0.052
